{"source": "paper PMC8533005", "experiment_in_all_cases": "purified protein", "key": {"purified protein [1]": {"substrate": "O=S(O)(O)=S", "format": "biochemical, Saccharomyces cerevisiae"}, "purified protein [2]": {"substrate": "O=S(O)(O)=S", "details": "pH 7.4; 37.0 °C"}, "purified protein [3]": {"substrate": "O=S(O)(O)=S", "format": "biochemical, Homo sapiens", "details": "Reaction 1, sulfur donor, fixed KCN, 300 mM HEPES pH 7.4, room temperature", "excerpt": "thiosulfate:cyanide sulfurtransferase, ferric thiocyanate colorimetry, Michaelis-Menten fit on TST"}, "[4]": {"details": "Reaction 1, sulfur donor, fixed KCN, 300 mM HEPES pH 7.4, 25 °C"}}, "data": [{"protein": "RDL1 (Saccharomyces cerevisiae S288C) (protein) MWKAVMNAWNGTESQSKNVSNIQSYSFEDMKRIVGKHDPNVVLVDVREPSEYSIVHIPASINVPYRSHPDAFALDPLEFEKQIGIPKPDSAKELIFYCASGKRGGEAQKVASSHGYSNTSLYPGSMNDWVSHGGDKLDL", "values": [{"measurement": "Km", "setting": "purified protein [1]; pH 7.4", "result": "4.0 ± 0.4", "unit": "mM"}]}, {"protein": "RDL2 (Saccharomyces cerevisiae S288C) (protein, His-tagged, pET30a, E. coli BL21(DE3), Ni-NTA and size exclusion; no firm dimer in crystal; active-site loop CAKGVR with Cys106 and Arg111) MFKHSTGILSRTVSARSPTLVLRTFTTKAPKIYTFDQVRNLVEHPNDKKLLVDVREPKEVKDYKMPTTINIPVNSAPGALGLPEKEFHKVFQFAKPPHDKELIFLCAKGVRAKTAEELARSYGYENTGIYPGSITEWLAKGGADVKPKK", "values": [{"measurement": "Km", "setting": "purified protein [1]; [4]", "result": "32.5 ± 3.50", "unit": "mM"}, {"measurement": "kcat", "setting": "purified protein [1]; [4]", "result": 15.32, "unit": "s⁻¹"}]}, {"protein": "RDL2 (Saccharomyces cerevisiae S288C; K108A) (protein, His-tagged, pET30a, E. coli BL21(DE3), Ni-NTA and size exclusion; no firm dimer in crystal; active-site loop CAKGVR with Cys106 and Arg111) MFKHSTGILSRTVSARSPTLVLRTFTTKAPKIYTFDQVRNLVEHPNDKKLLVDVREPKEVKDYKMPTTINIPVNSAPGALGLPEKEFHKVFQFAKPPHDKELIFLCAAGVRAKTAEELARSYGYENTGIYPGSITEWLAKGGADVKPKK", "values": [{"measurement": "Km", "setting": "purified protein [1]; [4]", "result": "93.23 ± 2.67", "unit": "mM"}, {"measurement": "kcat", "setting": "purified protein [1]; [4]", "result": 8.71, "unit": "s⁻¹"}]}, {"protein": "TST (Homo sapiens; T253V) (protein) MVHQVLYRALVSTKWLAESIRTGKLGPGLRVLDASWYSPGTREARKEYLERHVPGASFFDIEECRDTASPYEMMLPSEAGFAEYVGRLGISNHTHVVVYDGEHLGSFYAPRVWWMFRVFGHRTVSVLNGGFRNWLKEGHPVTSEPSRPEPAVFKATLDRSLLKTYEQVLENLESKRFQLVDSRSQGRFLGTEPEPDAVGLDSGHIRGAVNMPFMDFLTEDGFEKGPEELRALFQTKKVDLSQPLIATCRKGVVACHVALAAYLCGKPDVAVYDGSWSEWFRRAPPESRVSQGKSEKA", "values": [{"measurement": "Km", "setting": "purified protein [2]", "result": "2.43 ± 0.70", "unit": "mM"}, {"measurement": "kcat", "setting": "purified protein [2]", "result": 0.025, "unit": "s⁻¹"}]}, {"protein": "TST (Homo sapiens) (protein, codon-optimized synthetic gene, pET30a, E. coli BL21(DE3), Ni-NTA and size exclusion; tandem-domain rhodanese, active-site loop CRKGVT ending in Thr253) MVHQVLYRALVSTKWLAESIRTGKLGPGLRVLDASWYSPGTREARKEYLERHVPGASFFDIEECRDTASPYEMMLPSEAGFAEYVGRLGISNHTHVVVYDGEHLGSFYAPRVWWMFRVFGHRTVSVLNGGFRNWLKEGHPVTSEPSRPEPAVFKATLDRSLLKTYEQVLENLESKRFQLVDSRSQGRFLGTEPEPDAVGLDSGHIRGAVNMPFMDFLTEDGFEKGPEELRALFQTKKVDLSQPLIATCRKGVTACHVALAAYLCGKPDVAVYDGSWSEWFRRAPPESRVSQGKSEKA", "values": [{"measurement": "Km", "setting": "purified protein [3]", "result": "15.68 ± 2.86", "unit": "mM"}, {"measurement": "kcat", "setting": "purified protein [3]", "result": 101.73, "unit": "s⁻¹"}]}]}
